In article PMC10904395, “The Deinococcus protease PprI senses DNA damage by directly interacting with single-stranded DNA”:

Columns and labels:
[1] = molecular target: T1, DG-PprI (IrrE) (Deinococcus geothermalis, UniProt Q1J1D6 1-289); test: EMSA; 1 or 2 uM protein, 0.1 uM DNA; EMSA: 150 mM NaCl, 20 mM Tris-HCl pH 8.0, 0.1 mg/ml BSA, 0.1 uM FAM-labeled nucleic acid, 0/1/2 uM protein, room temperature 30 min, 10% native PAGE in 1x TB; conditions: protein: recombinant, tags: tag removed
T1 sequence: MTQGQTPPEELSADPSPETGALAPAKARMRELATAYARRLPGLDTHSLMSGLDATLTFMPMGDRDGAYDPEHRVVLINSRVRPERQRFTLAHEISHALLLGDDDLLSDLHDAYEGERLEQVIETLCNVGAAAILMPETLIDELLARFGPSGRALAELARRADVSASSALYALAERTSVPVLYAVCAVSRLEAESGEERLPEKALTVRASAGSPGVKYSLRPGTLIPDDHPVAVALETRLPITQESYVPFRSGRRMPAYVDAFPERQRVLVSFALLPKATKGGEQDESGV

[2] = molecular target: T1, DG-PprI (IrrE); test: X-ray crystallography; Mn2+; 2.2 A; PprI dimer in asymmetric unit; EMSA: 150 mM NaCl, 20 mM Tris-HCl pH 8.0, 0.1 mg/ml BSA, 0.1 uM FAM-labeled nucleic acid, 0/1/2 uM protein, room temperature 30 min, 10% native PAGE in 1x TB; conditions: protein: recombinant; tags: tag removed
[3] = molecular target: T1, DG-PprI (IrrE); test: EMSA; 1 or 2 uM protein, 0.1 uM RNA; EMSA: 150 mM NaCl, 20 mM Tris-HCl pH 8.0, 0.1 mg/ml BSA, 0.1 uM FAM-labeled nucleic acid, 0/1/2 uM protein, room temperature 30 min, 10% native PAGE in 1x TB; conditions: protein: recombinant; tags: tag removed; label: 5' FAM

B1: 35nt ssDNA (ssDNA)
DNA: CGCTCTTCGCCATTCTCTTGAAGTTTCAAACTTGG
[1]; label: 5' FAM
  binding result: binds

B2: 35 bp dsDNA (dsDNA)
DNA 1: CGCTCTTCGCCATTCTCTTGAAGTTTCAAACTTGG
DNA 2: CCAAGTTTGAAACTTCAAGAGAATGGCGAAGAGCG
[1]; label: 5' FAM on F strand, blunt
  binding result: no binding

B3: 29nt ssDNA (co-crystal) (ssDNA)
DNA: TCATGAGCAGTTTTTTTTTTTTTTTTTTT
[2]
  binding result: binds

B4: 35nt RNA (ssRNA)
RNA: CGCUCUUCGCCAUUCUCUUGAAGUUUCAAACUUGG
[3]
  binding result: no binding
